In patent US12723078 (University of Texas, dated 2026):

B1: mAb of B cell clone 204 (supernatant) (antibody, V domains shown)
VH: QSVKESGGGLVKPGGTLTLTCTASGFSFSSSYCMCWVRQAPGKGLELIACIYTDSSGATYYASWAKGRFTISKSSSTTITLQMTSLTAADTATYFCARGWDYEDPGYTDTTYFSLWGPGTLVTVSS
VL: ELDMTQTPSSVEAAVGGTVTIKCQASQTIYTNLAWYQQKPGQPPNLLIYAASTLASGVSSRFKGSGSGTEFTLTISDLECADAATYYCQSYYGSSTTGNGFGGGTEVEIN
notes: rabbit
B2: mAb of B cell clone 176 (supernatant) (antibody, V domains shown)
VH: QSLEESEGGLVKPGGTLTLTCTASGFSFSSSYCMCWVRQAPGKGLELIACIYTDSSGATYYASWAKGRFTISKSSSTTITLQMTSLTAADTATYFCARGWDYEDPGYTDTTYFSLWGPGTLVTVSS
VL: ELDLTQTPSSVEAAVGGTVTIKCQASQTIYTNLAWYQQKPGQPPNLLIYAASTLASGVSSRFKGSGSGTEFTLTISDLECADAATYYCQSYYGSSTTGNGFGGGTEVEIK
notes: rabbit
B3: mAb of B cell clone 227 (supernatant) (antibody, V domains shown)
VH: QSVKESGGGLVKPGGTLTLTCTASGFSFSSSYCMCWVRQAPGKGLELIACIYTDSSGATYYASWAKGRFTISKSSSTTITLQMTSLTAADTATYFCARGWDYEDPGYTDTTYFSLWGPGTLVTVSS
VL: ELDLTQTASPVSGAVGGTVTIKCQASQSIASDLAWYQQKPGQPPNLLIYAASTLASGVSSRFKGSGSGTEFTLTISDLECADAATYYCQSYYGSSTTGNGFGGGTEVVVK
notes: rabbit
B4: mAb of B cell clone 178 (supernatant) (antibody, V domains shown)
VH: QKQLVESGGGLVQPEGSLALTCTASGFSFSSSYWICWVRQAPGKGLEWIACIYAGSSGSTYYASWVNGRFTVFKTSSTTVTLQMTSLTAADTATYFCARGGTSYRLDLWGPGTLVTVSS
VL: ELVLTQTPSSKSVAVGDTVTINCQASDNVYSNNYTSWFQQKPGQPPKQLLYYAAYRASGVPSRFKGSGSGTEFTLSISDVVCDDAATYYCSGHKDYSDDGSTFGGGTEVEIK
notes: rabbit
B5: mAb of B cell clone 4 (supernatant) (antibody, V domains shown)
VH: RAVGKESGGGLVKPGASLTLTCKASGFDFSGIYWVCWVRQAPGKGLEWIACFDAERTGNTYYATWAKGRFTISRTSSTTVTLQMTSLTAADTATYFCARSYYMWGPGTLVTVSS
VL: ELVLTQTPSPVSAVVGGSVTINCQSSQSLYNANDLSWYQQKPGQPPKQLIYWASTLASGVPSRFKGSGSGTQFTLSISDVQCDDAATYYCLGEFSCSSFDCHVFGGGTEVVVK
notes: rabbit; also called B1-#4
B6: mAb of B cell clone 185 (supernatant) (antibody, V domains shown)
VH: SQQLKESGGGLVKPGGTLTLTCKASGIDFNNDYNICWVRQPPGKGLEWIGCIYTGSDSTDYASWVNGRFTISESTSLNTVDLKVTSLTDADTATYFCARDLVTGYATYGYGFILWGPGTLVTVSS
VL: ELVLTQTPSSKSVAVGDTVTINCQASDNVYSNNYTSWFQQKPGQPPKQLLYYAAYRASGVPSRFKGSGSGTEFTLSISDVVCDDAATYYCSGHKDYSDDGSTFGGGTEVEIK
notes: rabbit
B7: mAb of B cell clone 190 (supernatant) (antibody, V domains shown)
VH: QEQLKESGGDLVKPEGSLTLTCTASGFSFSSDYWVCWVRQAPGKGPEWIGCIYTGDDDTYYASWAKGRFTISKTSSTTVTLEVTSLTAADTATYFCARGLTIGTAELYFWGPGTVVTVSS
VL: ELVLTQTPSPVSAAVGGTVTINCQASQSISNELSWYQQKPGQPPKLLIYLASTLDSGVPSRFKGSGSGTQFTLTISDLECADAATYYCQSHYYGGSSDYGWAFGGGTEVVVK
notes: rabbit; also called B1-#190
B8: mAb of B cell clone 5 (supernatant) (antibody, V domains shown)
VH: EQSLEESGGDLVKPEGSLTLTCTASELSFSSAYYMCWVRQAPGKGLEWIGCIYSGDGDTYYANWAKGRFTISKTSSTTVTLQMTSLTDADTATYFCARALDSHYSSFDLWGPGTLVTISS
VL: ELDMTQTPSSVSAAVGDTVTIKCQASQSIYRYLAWYQQKPGQRPSLLIYYGSDLASGVPSRFSGSGSGTEFTLTISDLECADAASYYCQTTYDDYHNGWAFGGGTNVEIN
notes: rabbit; also called B1-#5
B9: mAb of B cell clone 196 (supernatant) (antibody, V domains shown)
VH: QEQLVESGGGLVQPEGSLTLTCTDSGFSFTKNYYMCWVRQAPGKGLEWIGCIYAGSTNTFYASWAKGRFTISKASSTTVDLKMTSLTVADTATYFCARDFVSYLNLWGPGTLVTVSS
VL: ELDMTQTPSSTSAAVGGTVTIKCQASQSVYNNNQLSWFQQKPGQPPKRLIYGASTLESGVPSRFSGSGSGTQFTLTISDLECDDAATYYCQGAVSSDYYPFGGGTEVEIK
notes: rabbit
B10: mAb of B cell clone 198 (supernatant) (antibody, V domains shown)
VH: QSLEESGGGLVKPEGSLTLTCTASGFDLSNNYYICWVRQAPGKGLELIACVDSDLTDSADYASWAKGRFTISKTSSTTVTLQMTSLTAADTATYFCAGSGSGYYYYYGMDLWGPGTLVTISS
VL: ELDMTQTPASVSEPVGGTVTIKCQASQSIGSYLAWYQQKPGQPPKLLAFYASTLKSGVPPRFKGSGSGTEFTLTISDLECADAATYYCQSNRLSSSDVNAFGGGTEVEIK
notes: rabbit
B11: mAb of B cell clone 202 (supernatant) (antibody, V domains shown)
VH: SQSLEESGGGLVKPGASLTLTCKGSGFSFNGDYYMCWVRQTPGKGLEWIGCIYAAGDDTYYATWAKGRFTISKTSSTTVTLQMTSLTAADTATYFCARDQADSYAFGLWGPGTLVTISS
VL: ELVLTQTASPVSGAVGGTVTIKCQASQNIYSNLAWYQQKPGQPPKLLIYSASKLASGVPSRFKGSGSGTEYTLTISGVQCEDAATYYCQSYYYTASADTTFGGGTEVEIK
notes: rabbit
B12: mAb of B cell clone 203 (supernatant) (antibody, V domains shown)
VH: QSLKESEGDLVKPGASLTLTCTASGFSFSSSYWICWVRQAPGKGLEWIACIYAGSSGSTYYASWAKGRFTISKTSSTTVTLEMTSLTDADTATYFCARGFSMFKLWGPGTLVTISS
VL: ELVLTQTPSSVEAAVGGTVTIKCQASQSIGSYLAWYQQKPGQPPKLLIYKASTLSSGVSSRYKGSGSGTEFTLTISDLECDDAATYYCQYTSYSSGGAFGGGTEVVVK
notes: rabbit
B13: mAb of B cell clone 209 (supernatant) (antibody, V domains shown)
VH: SQSVEESGGDLVKPGGTLTLTCTASRIDLNNYYYISWVRQAPGKGLEWIGVVATDSSVTWYASWAKGQFTISKTSSTTVTLQMTSLTAADTATYFCARGSGAATNGVWWVMGDGMDLWGPGTLVTVSS
VL: ELVMTQTPASVSEPVGGTVTIKCQASQSISSYLSWYQQKPGQPPKRLIYKASTLASGVPSRFKGSGSGTEFTLTISGVQCADAATYYCQNNYHSGSSNGGGFAFGGGTEVEIK
notes: rabbit
B14: mAb of B cell clone 210 (supernatant) (antibody, V domains shown)
VH: QSVEESEGRLVTPGGSLTLTCTVSGIDLSSYAMGWVRQAPGKGLEWIGVIGKSGTTYYANWAKGRFTISKTSTTVDLQIASPTTEDTATYFCARAGASRSIYYDLWGQGTLVTISS
VL: ELVLTQTPSSKSVAVGDTVTINCQASESVYGNNRCSWYQQKPGQPPKLLIYQASTLASGVPSRFSGSGSGTQFTLTISDVVCDDAATYYCAGHKGTTNDGNDFGGGTEVEIK
notes: rabbit; also called B1-#210
B15: mAb of B cell clone 7 (supernatant) (antibody, V domains shown)
VH: EQSLEESGGGLVKPGASLTVTCAVSGFSLNSYAITWVRQAPGKGLEYIGYIDTGASITDYASWAKGRFTISKTSSTTVTLEMTSLTDADTATYFCARGFSMFKLWGPGTLVTISS
VL: ELDLTQTPSSVSAAVGGTVTISCQASQSVYGNNRLAWYHQKPGQPPKRLIYLASTLDSGVPSRFKGAGSGTQFTLTISDLECDDAATYYCAGGYAGNFNAFGGGTEVEIK
notes: rabbit; also called B1-#7
B16: mAb of B cell clone 220 (supernatant) (antibody, V domains shown)
VH: QSVEESGGGLVQPEGSLTLTCTASGFSFSGIVYMCWVRQAPGKGLEWIACAFVGSGGSTYYATWATGRFTISKTSSTTVTLQMTSLTAADTATYFCAKSYNYNGLGLWGPGTLVTVSS
VL: ELDMTQTPASVSAAVGGTVTIKCQASQSITNALAWYQQKPGQPPKLLIYRASTLASGVSSRFKGSGSGTEFTLTISDLECADAATYYCQCSYYGSTYFGSPFGGGTEVEIK
notes: rabbit; also called B1-#220
B17: mAb of B cell clone 221 (supernatant) (antibody, V domains shown)
VH: QSLEESGGDLVKPGASLTLTCTASGFSFSSSYYMCWVRQAPGKGLEWIACIYGGSTGTTYYASWAKGRFTISKTSSTTVTLQMTSLTGADTATYFCARSYNSASSGYYWDLWGPGTLVTVSS
VL: ELDLTQTPSSVEAAVGGTVTIKCQASQSIGSNLAWYQQKPGQPPKVLIYKASTLASGVPSRFKGSGSGTQFTLTISDLECADAATYYCQNNNYWSNGNHFGGGTEVVVK
notes: rabbit
B18: mAb of B cell clone 224 (supernatant) (antibody, V domains shown)
VH: EQSVEESGGGLVQPEGSLTLTCTASGIDFSSGAWICWVRQAPGKGLELIACIFTTSGFTYYASWAKGRFTISKTSSTTVTLQMTSLTAADTATYFCARDIYSYGMDLWGPGTLVTISS
VL: ELVLTQTPSSVSEPVGGTVTIKCQASQSISSSYLAWYQQKPGQPPKFLIYSASTLASGVPSRFKGSGSGTEFTLTISDLECADAATYYCQSTYISSSNYGAAFGGGTEVEIK
notes: rabbit
B19: mAb of B cell clone 226 (supernatant) (antibody, V domains shown)
VH: QEQLVESGGGLVQPEGSLTLTCTASGFSFSSRQYISWVRRAPGKGLEWIGAIVTVNNKVHYANWAKGRFTISEASSTTVTLQMTSLTAADTATYFCARWRTFGLWGPGTLVTVSS
VL: ELVLTQTPSSKSVAVGDTVTINCQASENVYSNNYTSWFQQKPGQPPKQLLYYAAYRASGVPSRFKGSGSGTEFTLSISDVVCDDAATYYCSGHKDYSDDGSTFGGGTEVVVK
notes: rabbit
B20: mAb of B cell clone 10 (supernatant) (antibody, V domains shown)
VH: EQSVEESGGGLVKPEGSLTLTCKASGLDFSSSYWICWVRQAPGKGLEWIACIDTGSSGSTYYASWAKGRFTVSKTSSTTVSLQMTSLTAADTATYFCASTPNSLGYDLWGPGTLVTISS
VL: ELDLTQTPASVSAAVGGTVTIKCQASQNIVSNLAWYQQKPGQRPKLLIYYASTLASGVPSRFKGSGSGTEYTLTISDLECADAATYYCQNNAGIYGNYGHGFGGGTELEIK
notes: rabbit; also called B1-#10
B21: mAb of B cell clone 15 (supernatant) (antibody, V domains shown)
VH: EQSVEESGGDLVKPGASLTLTCTASGFSSSSSAYMCWVRQAPGKGLEWIACIFIGSGSDSYYATWAKGRFTISKTSSTTVTLQMTSLTAADTATYFCARNTYDWNGYIYGPCYFGLWGPGTLVTISS
VL: ELDLTQTPSSVEAAVGGTVTIKCQASQSIYNYLAWYQQKPGHSPKLLIYDVSKLASGVSSRFKGSGSGTEFTLTISDLECADAATYYCQSYYGNTVSFTFGGGTEVEIK
notes: rabbit; also called B1-#15
B22: mAb of B cell clone 18 (supernatant) (antibody, V domains shown)
VH: EQSVKESGGGLVKPGGTLTLTCIVSGFSLSRYAVTWVRQAPGKGPEWIGYIDTSSGNKDYANWVNGRFTISKTSSTTVTLQMTSLTAADTATYFCARGFSMFKLWGPGTLVTISS
VL: ELVMTQTPSSVSAAVGGTVTISCQASQSVYNNNNLAWYQQKPGQPPKRLIYSASTLDSGVPSRFSGSGSGTQFTLTISDLECDDAATYYCAGGYTYNINIFGGGTEVEIK
notes: rabbit; also called B1-#18

The binders below were run against T1, human LILRB1 recombinant protein (human, UniProt Q8NHL6 24-461) (assay: ELISA, B cell supernatant).
T1 construct: The ELISA method says only 'LILRB1 recombinant proteins' coated on plates; also called leukocyte immunoglobulin-like receptor subfamily B member 1
T1 sequence (Q8NHL6 24-461 limits assumed): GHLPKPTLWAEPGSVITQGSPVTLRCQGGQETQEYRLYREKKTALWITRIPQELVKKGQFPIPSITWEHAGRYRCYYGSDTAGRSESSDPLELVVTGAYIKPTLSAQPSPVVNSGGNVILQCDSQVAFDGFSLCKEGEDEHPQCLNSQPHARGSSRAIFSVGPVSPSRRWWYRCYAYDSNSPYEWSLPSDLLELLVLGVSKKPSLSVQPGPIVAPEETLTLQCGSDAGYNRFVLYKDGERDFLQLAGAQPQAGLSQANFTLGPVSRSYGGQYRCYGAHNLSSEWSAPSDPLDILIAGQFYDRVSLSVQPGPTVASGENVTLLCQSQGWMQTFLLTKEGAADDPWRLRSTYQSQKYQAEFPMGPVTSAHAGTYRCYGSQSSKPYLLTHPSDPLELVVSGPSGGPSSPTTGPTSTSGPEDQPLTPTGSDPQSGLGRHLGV

First: B1
Second: B2
The OD450 of the first is lower: 2.03 OD450 for the first, 2.06 OD450 for the second.

First: B3
Second: B4
The OD450 of the first is higher: 2.08 OD450 for the first, 1.81 OD450 for the second.

Going from B5 to B6, the OD450 falls from 2.47 OD450 to 1.67 OD450.

Going from B7 to B8, the OD450 rises from 1.9 OD450 to 2.27 OD450.

First: B9
Second: B10
The OD450 of the first is lower: 2.27 OD450 for the first, 2.28 OD450 for the second.

Going from B11 to B12, the OD450 falls from 1.95 OD450 to 1.75 OD450.

Going from B13 to B14, the OD450 falls from 2.18 OD450 to 1.75 OD450.

Going from B15 to B16, the OD450 falls from 2.4 OD450 to 2.24 OD450.

First: B17
Second: B18
The OD450 of the first is lower: 1.64 OD450 for the first, 2.09 OD450 for the second.

Compared with B19, B20 is lower in OD450: 2.38 OD450 for the first, 2.17 OD450 for the second.

First: B21
Second: B22
The OD450 of the first is higher: 2.5 OD450 for the first, 2.41 OD450 for the second.
